The text below walks through data of PMC6389977, “Dengue virus nonstructural 3 protein interacts directly with human glyceraldehyde-3-phosphate dehydrogenase (GAPDH) and reduces its glycolytic activity” (Scientific Reports, 2019).

What is called Kd is the equilibrium constant for the complex coming apart.

B2: purified recombinant human GAPDH protein (enzyme)
chain: not shown
notes: also called glyceraldehyde-3-phosphate dehydrogenase

The target of assay [1] is B2. Kind of assay: SPR; unpublished data; no conditions told; the estimate is given together with the ELISA result of ref. 39.
In assay [2] the target is T1, recombinant full-length DENV2 NS3 protein (dengue virus 2, New Guinea C (NGC) …, UniProt P14340 1476-2093).
T1 construct: also called full-length NS3
As to the kind of experiment: SPR. To be noted: both partners purified.

T1 sequence (P14340 1476-2093): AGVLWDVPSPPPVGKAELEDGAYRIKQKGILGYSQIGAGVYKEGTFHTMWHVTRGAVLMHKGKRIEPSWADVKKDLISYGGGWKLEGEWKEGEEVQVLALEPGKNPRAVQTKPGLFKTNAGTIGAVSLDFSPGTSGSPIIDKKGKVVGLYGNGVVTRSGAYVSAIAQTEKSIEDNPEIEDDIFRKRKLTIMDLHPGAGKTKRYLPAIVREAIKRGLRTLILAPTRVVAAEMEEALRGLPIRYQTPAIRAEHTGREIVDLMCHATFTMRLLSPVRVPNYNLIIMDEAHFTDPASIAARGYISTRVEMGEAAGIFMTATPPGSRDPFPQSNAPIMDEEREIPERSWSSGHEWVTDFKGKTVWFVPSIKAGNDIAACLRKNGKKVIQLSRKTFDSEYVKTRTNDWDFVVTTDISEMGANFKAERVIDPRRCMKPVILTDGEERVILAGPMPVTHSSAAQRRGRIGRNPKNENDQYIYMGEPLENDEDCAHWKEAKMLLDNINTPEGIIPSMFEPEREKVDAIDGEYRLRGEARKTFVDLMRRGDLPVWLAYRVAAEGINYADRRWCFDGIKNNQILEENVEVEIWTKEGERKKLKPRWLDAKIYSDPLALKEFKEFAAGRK

B1: DENV2 NS1 protein (natural protein)
chain: DSGCVVSWKNKELKCGSGIFITDNVHTWTEQYKFQPESPSKLASAIQKAHEEGICGIRSVTRLENLMWKQITPELNHILSENEVKLTIMTGDIKGIMQAGKRSLQPQPTELKYSWKTWGKAKMLSTESHNQTFLIDGPETAECPNTNRAWNSLEVEDYGFGVFTTNIWLKLREKQDVFCDSKLMSAAIKDNRAVHADMGYWIESALNDTWKIEKASFIEVKSCHWPKSHTLWSNGVLESEMIIPKNFAGPVSQHNYRPGYHTQTAGPWHLGKLEMDFDFCEGTTVVVTEDCGNRGPSLRTTTASGKLITEWCCRSCTLPPLRYRGEDGCWYGMEIRPLKEKEENLVNSLVTA
Turning to B1, the Kd in assay [1] is 2000 to 3000 nM.

Take B2: the Kd in assay [2] came out at 310 nM.
